# From PMC8113479, “Following replicative DNA synthesis by time-resolved X-ray crystallography”
# B1: P/T duplex (starting primer-template) (dsDNA)
# DNA 1: GCGATCACGT
# DNA 2: GACGTACGTGATCGCA
# B2: P+2/T duplex (primer extended by dA and dC in crystallo) (dsDNA)
# DNA 1: GCGATCACGTAC
# DNA 2: GACGTACGTGATCGCA
# B3: P+1/T duplex (primer extended by dA in crystallo) (dsDNA)
# DNA 1: GCGATCACGTA
# DNA 2: GACGTACGTGATCGCA
# What was measured:
# [1] = target: T1, Bst DNA polymerase I large fragment (Geobacillus stearothermophilus, UniProt E1C9K5 3-580); test: X-ray crystallography; 0 min, before dATP soak; Co-crystals; P/T duplex annealed in Bst buffer (50 mM Tris-Cl pH 7.5, 150 mM NaCl, 1 mM EDTA, 10 mM BME) with 20 mM MgCl2; crystallization and soak conditions not in the material; conditions: protein: recombinant; tags: tagless; template 5' overhang 5 nt (GACGT) and 3' overhang 1 nt (A); 10 bp
# [2] = target: T1, Bst DNA polymerase I large fragment; test: X-ray crystallography; dATP and dCTP soak, 48 h, product binary complex; Co-crystals; P/T duplex annealed in Bst buffer (50 mM Tris-Cl pH 7.5, 150 mM NaCl, 1 mM EDTA, 10 mM BME) with 20 mM MgCl2; crystallization and soak conditions not in the material; conditions: protein: recombinant; tags: tagless; template 5' overhang 3 nt and 3' overhang 1 nt; 12 bp
# [3] = target: T1, Bst DNA polymerase I large fragment; test: X-ray crystallography; dATP soak, 120 min, product complex; Co-crystals; P/T duplex annealed in Bst buffer (50 mM Tris-Cl pH 7.5, 150 mM NaCl, 1 mM EDTA, 10 mM BME) with 20 mM MgCl2; crystallization and soak conditions not in the material; conditions: protein: recombinant; tags: tagless; template 5' overhang 4 nt and 3' overhang 1 nt; 11 bp
binder,measurement,setting,value
B1,binding result,[1],binds
B2,binding result,[2],binds
B3,binding result,[3],binds
